{"source": "IntAct's records for PubMed 20595257", "parents": {"B1": {"name": "Phage shock protein C (Escherichia coli (strain K12)), P0AFN2 (parent)", "chain": "MAGINLNKKLWRIPQQGMVRGVCAGIANYFDVPVKLVRILVVLSIFFGLALFTLVAYIILSFALDPMPDNMAFGEQLPSSSELLDEVDRELAASETRLREMERYVTSDTFTLRSRFRQL", "partner": "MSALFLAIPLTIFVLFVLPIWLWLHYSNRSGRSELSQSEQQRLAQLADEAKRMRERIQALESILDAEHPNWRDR"}, "B2": {"name": "Phage shock protein C (Escherichia coli (strain K12)), P0AFN2 (parent)", "chain": "B1 chain"}, "B3": {"name": "Aerobic respiration control sensor protein ArcB (Escherichia coli (strain K12)), P0AEC3 (parent)", "chain": "MKQIRLLAQYYVDLMMKLGLVRFSMLLALALVVLAIVVQMAVTMVLHGQVESIDVIRSIFFGLLITPWAVYFLSVVVEQLEESRQRLSRLVQKLEEMRERDLSLNVQLKDNIAQLNQEIAVREKAEAELQETFGQLKIEIKEREETQIQLEQQSSFLRSFLDASPDLVFYRNEDKEFSGCNRAMELLTGKSEKQLVHLKPADVYSPEAAAKVIETDEKVFRHNVSLTYEQWLDYPDGRKACFEIRKVPYYDRVGKRHGLMGFGRDITERKRYQDALERASRDKTTFISTISHELRTPLNGIVGLSRILLDTELTAEQEKYLKTIHVSAVTLGNIFNDIIDMDKMERRKVQLDNQPVDFTSFLADLENLSALQAQQKGLRFNLEPTLPLPHQVITDGTRLRQILWNLISNAVKFTQQGQVTVRVRYDEGDMLHFEVEDSGIGIPQDELDKIFAMYYQVKDSHGGKPATGTGIGLAVSRRLAKNMGGDITVTSEQGKGSTFTLTIHAPSVAEEVDDAFDEDDMPLPALNVLLVEDIELNVIVARSVLEKLGNSVDVAMTGKAALEMFKPGEYDLVLLDIQLPDMTGLDISRELTKRYPREDLPPLVALTANVLKDKQEYLNAGMDDVLSKPLSVPALTAMIKKFWDTQDDEESTVTTEENSKSEALLDIPMLEQYLELVGPKLITDGLAVFEKMMPGYVSVLESNLTAQDKKGIVEEGHKIKGAAGSVGLRHLQQLGQQIQSPDLPAWEDNVGEWIEEMKEEWRHDVEVLKAWVAKATKK"}, "B4": {"name": "Aerobic respiration control sensor protein ArcB (Escherichia coli (strain K12)), P0AEC3 (parent)", "chain": "B3 chain", "partner": "B1 chain"}, "B5": {"name": "Aerobic respiration control sensor protein ArcB (Escherichia coli (strain K12)), P0AEC3 (parent)", "chain": "B3 chain", "partner": "B1 partner"}, "B6": {"name": "Phage shock protein B (Escherichia coli (strain K12)), P0AFM9 (parent)", "chain": "B1 partner", "partner": "B1 chain"}}, "data": [{"variants_of": "B1", "details": "with pspb_ecoli pspB", "values": [{"variant": "G74A", "effect of a mutation on the interaction": "with no effect"}, {"variant": "G48A", "effect of a mutation on the interaction": "with no effect"}]}, {"variants_of": "B2", "details": "with pspa_ecoli pspA", "values": [{"variant": "G48A", "effect of a mutation on the interaction": "disrupting interaction strength"}, {"variant": "G74A", "effect of a mutation on the interaction": "with no effect"}, {"variant": "L91A;L98A", "effect of a mutation on the interaction": "disrupting interaction strength"}]}, {"variants_of": "B3", "details": "with pspa_ecoli pspA", "values": [{"variant": "L87A;L90A;L94A;M97A", "effect of a mutation on the interaction": "with no effect"}]}, {"variants_of": "B4", "details": "with pspc_ecoli pspC", "values": [{"variant": "L87A;L90A;L94A;M97A", "effect of a mutation on the interaction": "with no effect"}]}, {"variants_of": "B5", "details": "with pspb_ecoli pspB", "values": [{"variant": "L87A;L90A;L94A;M97A", "effect of a mutation on the interaction": "with no effect"}]}, {"variants_of": "B6", "details": "with pspc_ecoli pspC", "values": [{"variant": "L10A;L15A;L18A", "effect of a mutation on the interaction": "with no effect"}]}]}
